{"source": "patent US20140170125A1", "about": "“USE OF CARDIOTROPHIN-1 FOR THE TREATMENT OF KIDNEY DISEASES” (DIGNA Biotech, S.L., priority 2011, published 2014)", "key": {"[1]": {"test_system": "experimental model of iodinated contrast nephropathy", "assay": "Contrast-induced nephropathy: Gastrografin in rats sensitized with subtoxic gentamicin", "procedure": "The rats were placed in individual metabolic cages where they had free access to food and drink. After two days of acclimatization, the 24-hour urine was collected in graduated cylinders. The urine collected was centrifuged during 8 minutes at 2,500 rpm, to clean it from residues not thereof, the clean urine was collected and it was stored at −80° C. for its later analysis.\nThe blood samples were obtained in capillaries with heparin by a small cut at the end of the tail. Five capillaries were extracted per rat (200 μL), and the capillaries were centrifuged in a microcentrifuge at 11,000 rpm during three minutes. Once centrifuged, the capillaries were broken with the aid of a file, by the cells-plasma limit. The plasma was extracted and stored in eppendorf tubes at −80° C. for its later analysis.\nTo measure kidney function, the plasma concentrations of creatinine and creatinine clearance, which is a measurement of the glomerular filtration rate, were determined. The creatinine clearance (CrCl) was calculated from the formula CrCl=UF×CrU/CrP, where UF is the urinary flow (ml/min), CrU the creatinine concentration in urine (mg/ml) and CrP the creatinine concentration in plasma (mg/ml). The creatinine concentration in urine and in plasma were measured by a semiautomatic analyser (Reflotron, Roche).\nThe concentration of urea in plasma was measured by specific reactive strips of a commercial kit, using a semiautomatic analyser (Reflotron, Roche).\nThe concentration of proteins in urine (proteinuria) was measured by Bradford's colorimetric method (Anal Biochem. 1976; 72:248-54). The urinary excretion of proteins (UEprot) in 24 hours was calculated by the formula: UEprot=Cprot×FU24 h, where Cprot is the concentration of proteins in urine (mg/mL) and FU24 h the urinary flow of 24 hours (mL/day).\nFor its determination a commercial kit from Roche was used, following the manufacturer's specifications, and the results were analysed with the KC-Junior software.\nIn the Western Blot technique, 100 μg of protein of the total of the renal tissue homogenate or a volume of urine of each animal which corresponds to the excretion fraction were loaded in a polyacrylamide gel. After separation by electrophoresis, these proteins were transferred to a PVDF membrane (Inmobilon-P #IPVH00010, Madrid, Spain), and they were hybridized with antibodies against KIM-1 (R&D Systems) and NGAL (MBL).\nAn experimental model of iodinated contrast nephropathy was used, consisting of the intravenous administration of the iodinated contrast Gastrografin (Bayer C. N. 909622 EXO) to rats predisposed to suffering acute kidney failure.\nThe experiment was performed on 32 male Wistar rats of around 220 grams in weight. The environmental conditions of the animals were kept constant: temperature of around 20° C., humidity of approximately 60% and daily light period (photoperiod) of 12 hours.\nSix experimental groups were considered in the design study:\nControl group (C): rats administered saline solution (n=5).\nCardiotrophin group (CT-1): rats administered cardiotrophin i.v. (100 μg/Kg/day) the day before the administration of the contrast and in the four subsequent days (n=5).\nGastrografin group (Gg): rats administered a single dose of iodinated agent i.v. (10 mL/Kg; […]) (n=5).\nThe animals were housed in metabolic cages in order to collect the urine free of faeces. Likewise, a blood sample was obtained every day (0.150 ml) from the tail in heparized capillaries.\nAt the end of the experiments (four days after administration of the iodinated contrast) the rats were anaesthetized and, later, they were perfused with heparinized saline solution. The kidneys were obtained from these animals and part of the samples was introduced in formol to perform histological studies whilst another part was ultrafrozen for the tissue studies.\nThe studies performed were the following:\nPlasma creatinine, Plasma urea, proteinuria, microalbuminuria\nCreatinine clearance in metabolic cages"}, "[2]": {"test_system": "cisplatin-induced kidney injury", "assay": "Acute kidney injury produced by cisplatin", "format": "in vivo, Wistar rats", "procedure": "The urinary flow (mL/day) was evaluated measuring the graduated receptacles containing the 24-hour urine in the metabolic cages as indicated in the obtainment of urine.\nThe experiment was performed in 24 male Wistar rats of around 220 grams in weight.\nThe animals were divided in 4 experimental groups, comprising 6 rats per group. […] The experimental design was developed as described below:\nGroup I (Control, C, n=6 animals) animals treated with vehicle via i.v. during 7 days.\nGroup II (Cardiotrophin-1, CT-1, n=6 animals) animals administered a daily dose of cardiotrophin-1 of 100 μg/kg body weight via i.v. during 7 days."}, "[3]": {"test_system": "rats subjected to 60 minutes of left renal ischemia", "assay": "Acute kidney injury produced by renal ischemia/reperfusion (60 minutes of left renal ischemia)", "format": "in vivo"}, "[4]": {"test_system": "acute kidney injury produced by gentamicin", "assay": "Acute kidney injury produced by gentamicin"}, "[5]": {"conditions": "agents without CT-1 protection or alone, vs control"}, "[6]": {"conditions": "group Gg+G+CT-1, CT-1 100 μg/Kg/day i.v."}, "[7]": {"conditions": "4 hours after reperfusion, elevation induced by IR"}}, "note": "“Also recorded” adds a separate entry of the source.", "data": [{"molecule": "CT-1: cytokine belonging to the interleukin 6 family; recombinant human CT-1 or rat cardiotrophin-1 administered i.v. (protein, UniProt Q16619 1-201, looked up) Cardiotrophin-1: MSRREGSLEDPQTDSSVSLLPHLEAKIRQTHSLAHLLTKYAEQLLQEYVQLQGDPFGLPSFSPPRLPVAGLSAPAPSHAGLPVHERLRLDAAALAALPPLLDAVCRRQAELNPRAPRLLRRLEDAARQARALGAAVEALLAALGAANRGPRAEPPAATASAASATGVFPAKVLGLRVCGLYREWLSRTEGDLGQLLPGGSA", "values": [{"measurement": "creatinine clearance", "setting": "[1]; [5]", "result": "did not alter"}, {"measurement": "plasma concentration of creatinine", "setting": "[1]; [5]", "result": "did not alter"}, {"measurement": "proteinuria", "setting": "[1]; [5]", "result": "did not alter"}, {"measurement": "urea plasma concentration", "setting": "[1]; [5]", "result": "did not alter"}, {"measurement": "effect on the RPF decrease produced by Gg+G", "setting": "[1]; co-treatment with CT-1", "result": "reversal"}, {"measurement": "effect on the RVR increase produced by gentamicin and gastrografin", "setting": "[1]; coadministration of CT-1", "result": "counteracted the increase"}, {"measurement": "PAI-1 in the urine under Gg+G with CT-1", "setting": "[1]; group Gg+G+CT-1", "result": "does not appear"}, {"measurement": "effect on the GFR decrease produced by Gg+G", "setting": "[1]; group Gg+G+CT-1", "result": "reversed"}, {"measurement": "effect on the NAG increase produced by Gg+G", "setting": "[1]; group Gg+G+CT-1", "result": "reduced this increase"}, {"measurement": "effect on the decrease in creatinine clearance produced by Gg+G", "setting": "[1]; [6]", "result": "partially reversed"}, {"measurement": "effect on the increase in plasma concentration of creatinine produced by Gg+G", "setting": "[1]; [6]", "result": "partially reversed"}, {"measurement": "effect on the increase in plasma urea produced by Gg+G", "setting": "[1]; [6]", "result": "partially reversed"}, {"measurement": "effect on the proteinuria produced by Gg+G", "setting": "[1]; [6]", "result": "partially reversed"}, {"measurement": "KIM-1 in the urine (Western blot)", "setting": "[1]; in comparison with the controls", "result": "produced no effect"}, {"measurement": "deterioration of renal excretory function and intensity of tubular damage (conclusion)", "setting": "[1]; recombinant human CT-1 i.v. 100 μg/kg/day, contrast nephropathy in animals sensitized with gentamicin", "result": "reduces"}, {"measurement": "general condition (appearance, mobility)", "setting": "[1]; throughout the experiment", "result": "healthy appearance and normal mobility"}, {"measurement": "survival", "setting": "[1]; until the end of the experiment (four days after contrast)", "result": "all animals survived until the end of the experiment"}, {"measurement": "effect on the increase in KIM-1 expression produced by Gg+G", "setting": "[1]; urine, Western blot, group Gg+G+CT-1", "result": "considerably decreases the increase"}, {"measurement": "PAI-1 in the urine (Western blot)", "setting": "[1]; vs control group", "result": "not different from the control group animals"}, {"measurement": "body weight", "setting": "[2]; agent alone, vs control group", "result": "without apparent differences; also recorded: does not show changes"}, {"measurement": "plasma creatinine", "setting": "[2]; agent alone, vs control group", "result": "does not reflect changes"}, {"measurement": "cisplatin-induced reduction in body weight under joint treatment", "setting": "[2]; cardiotrophin-1 100 μg/kg i.v. 7 days + cisplatin 6 mg/kg i.p., vs cisplatin", "result": "significantly less"}, {"measurement": "cisplatin-induced increase in plasma creatinine under joint treatment", "setting": "[2]; cardiotrophin-1 100 μg/kg i.v. 7 days + cisplatin 6 mg/kg, vs cisplatin", "result": "significantly less"}, {"measurement": "physical condition during coadministration with cisplatin", "setting": "[2]; cardiotrophin-1 + cisplatin", "result": "spectacular improvement"}, {"measurement": "cisplatin-induced increase in final kidney weight under joint treatment", "setting": "[2]; cardiotrophin-1 + cisplatin, vs cisplatin", "result": "substantially less"}, {"measurement": "effect on cisplatin-induced kidney injury (conclusion)", "setting": "[2]; rat cardiotrophin-1 100 μg/kg/day i.v. 7 days, cisplatin 6 mg/kg", "result": "protective effect"}, {"measurement": "survival", "setting": "[2]; throughout the experimental period, vs control group", "result": "does not modify the survival"}, {"measurement": "urinary flow under joint administration with cisplatin", "setting": "[2]; without significant differences vs control and cardiotrophin-1 groups", "result": "constant evolution"}, {"measurement": "decrease of plasma levels of IL-6 after ischemia and reperfusion", "setting": "[3]; 4 hours after reperfusion", "result": "not observed"}, {"measurement": "decrease of plasma levels of IL-10 after ischemia and reperfusion", "setting": "[3]; 4 hours after reperfusion", "result": "not observed"}, {"measurement": "plasma levels of IFN-γ", "setting": "[3]; [7]", "result": "blocked the elevation"}, {"measurement": "plasma levels of IL-1β", "setting": "[3]; [7]", "result": "blocked the elevation"}, {"measurement": "plasma levels of TNF-α", "setting": "[3]; [7]", "result": "blocked the elevation"}, {"measurement": "obstructed tubules and vacuolated cells (histology)", "setting": "[3]; 24 hours after reperfusion, vs control kidneys", "result": "less abundant"}, {"measurement": "creatinine clearance", "setting": "[3]; 48 hours after I/R, vs IR C", "result": "significantly higher"}, {"measurement": "plasma creatinine", "setting": "[3]; 48 hours after I/R, vs IR C, no significant differences vs simulated group", "result": "markedly lower"}, {"measurement": "denuded tubules and inflammatory infiltration (histology)", "setting": "[3]; 48 hours after reperfusion, vs control kidneys", "result": "less abundant"}, {"measurement": "mortality", "setting": "[3]; 14 days after the I/R, CT-1 400 μg/kg, untreated ischemic group 40%", "result": 20, "unit": "%"}, {"measurement": "acute kidney injury induced by ischemia/reperfusion (conclusion)", "setting": "[3]; also decrease in kidney function, oxidative stress and inflammation", "result": "prevents acute kidney injury"}, {"measurement": "renal levels of superoxide anion (SOA)", "setting": "[3]; four hours after reperfusion, vs ischemic control group, significantly greater than simulated group", "result": "significantly less"}, {"measurement": "gentamicin-induced symptoms (appearance, mobility, hair) in group G+CT-1", "setting": "[4]; CT-1 100 μg/kg/day i.v. 7 days + gentamicin 150 mg/kg/day i.p. 6 days", "result": "significantly reduced"}, {"measurement": "effect on the decrease in creatinine clearance produced by G", "setting": "[4]; CT-1 together with G", "result": "partially reversed"}, {"measurement": "effect on the increase in plasma creatinine produced by G", "setting": "[4]; CT-1 together with G", "result": "partially reversed"}, {"measurement": "effect on the increase in plasma urea concentration produced by G", "setting": "[4]; CT-1 together with G", "result": "partially reversed"}, {"measurement": "effect on the proteinuria produced by G", "setting": "[4]; CT-1 together with G", "result": "partially reversed"}, {"measurement": "urinary flow", "setting": "[4]; administered separately, vs control group (C)", "result": "Neither G nor CT-1, administered separately, modified the urinary flow"}, {"measurement": "creatinine clearance", "setting": "[4]; agent alone", "result": "did not alter"}, {"measurement": "general condition (appearance, mobility)", "setting": "[4]; agent alone", "result": "healthy appearance and normal mobility"}, {"measurement": "plasma creatinine", "setting": "[4]; agent alone", "result": "did not alter"}, {"measurement": "proteinuria", "setting": "[4]; agent alone", "result": "did not alter"}, {"measurement": "urea plasma concentration", "setting": "[4]; agent alone", "result": "did not alter"}, {"measurement": "reactive bands to the anti KIM-1 antibody in the urine", "setting": "[4]; agent alone, vs controls", "result": "does not produce any effect"}, {"measurement": "renal levels of KIM-1 (Western blot)", "setting": "[4]; agent alone, vs controls", "result": "does not produce any effect"}, {"measurement": "liver weight (with respect to the body weight)", "setting": "[4]; at the time of sacrifice", "result": "certain hepatomegaly"}, {"measurement": "spleen weight (with respect to the body weight)", "setting": "[4]; at the time of sacrifice", "result": "marked splenomegaly"}, {"measurement": "systolic blood pressure (SBP)", "setting": "[4]; basal vs end of treatments (d 6)", "result": "not observed"}, {"measurement": "extension of gentamicin tubular damage under cotreatment (histology)", "setting": "[4]; cotreatment with CT-1", "result": "moderately and partially prevents the extension of tubular damage"}, {"measurement": "renal and urinary NGAL (Western blot)", "setting": "[4]; end of treatments", "result": "induce an increase"}, {"measurement": "effect on the increase in NAG excretion produced by G", "setting": "[4]; especially the submaximal of the first days", "result": "reduces this increase"}, {"measurement": "effect on the increase in KIM-1 expression in the kidney that G produces", "setting": "[4]; group G+CT-1", "result": "does not appreciably decrease"}, {"measurement": "effect on the weight loss produced by G", "setting": "[4]; group G+CT-1", "result": "partially mitigated"}, {"measurement": "upper band (approx. 90 kDa) of KIM-1 in the urine under G with CT-1", "setting": "[4]; group G+CT-1", "result": "partially decreases"}, {"measurement": "effect on acute kidney injury produced by gentamicin (conclusion)", "setting": "[4]; recombinant human CT-1 i.v. 100 μg/kg/day, 7 days", "result": "protective effect"}, {"measurement": "survival", "setting": "[4]; until the end of the experiment", "result": "all animals survived until the end of the experiment"}]}]}
